{"source": "patent US20060009452A1", "about": "“Therapeutic targeting of PARC/CCL18 and its signaling in pulmonary fibrosis” (priority 2004, published 2006)", "key": {"α2(I) collagen mRNA": {"tested_on": "α2(I) collagen mRNA", "assay": "Real-time PCR for α2(I) collagen mRNA relative to 18S rRNA", "type": "cell-based, human"}, "TGF-β1 mRNA": {"tested_on": "TGF-β1 mRNA", "assay": "Real-time PCR for TGF-β mRNA", "type": "cell-based, human", "settings": "LF1 and LF4, 300 ng/ml rhPARC", "method": "Real-time PCR Quantification of Steady-State mRNA Levels. Total RNA was purified from fibroblast cultures using Trizol reagent (Invitrogen, Carlsbad, Calif.) following the manufacturer's recommendations. First-strand cDNA was synthesized in a 20-μl reaction mixture containing 1 μg of total RNA, 50 mM Tris HCl (pH 8.3), 75 mM KCl, 3 mM MgCl2, 0.5 mM of each dNTP, 1 μM of random hexamer primers, and 400 units of Moloney murine leukemia virus RT (Invitrogen). The reaction mixture was incubated at 37° C. for 60 minutes, then heated at 95° C. for 5 minutes. Real-time PCR was performed on a LightCycler system (Roche, Indianapolis, Ind.). The primers, PCR protocol, and product quantification for the internal control 18S ribosomal RNA were exactly as reported previously (Schmittgen T D et al.). All other primers and hybridization probes were designed and prepared by TIB Molbiol (Adelphia, N.J.). […] The following PCR conditions were used: activation at 95° C. for 10 min, followed by 35 cycles of denaturation at 95° C. for 3 s, primer annealing at 50° C. for 5 s, fluorescence readout (F12/F11) at 50° C., and extension at 72° C. for 15 s. Fold difference in gene expression relative to 18S rRNA between treated and untreated cultures was calculated using the 2-ΔΔCT method (Livak K J et al.)."}, "[1]": {"tested_on": "lung and dermal fibroblast lines", "assay": "CellTiter AQueous 96 fibroblast proliferation assay", "type": "cell-based, human", "settings": "for maximum increase in fibroblast proliferation over non-stimulated control: Days 7 and 8, rhPARC 1-3,000 ng/ml", "method": "Cell Proliferation Assays. For CellTiter AQueous 96 Non-Radioactive Cell Proliferation Assay (Promega, Madison, Wis.), fibroblasts were plated in low-serum medium at 2×10^3 cells/well in 96-well flat-bottom tissue culture plates (Costar) in 0.2-ml cultures and stimulated with increasing concentrations of rhPARC in quadruplicates. Low-serum tissue culture medium alone was the negative control. The Cell-Titer proliferation assay was performed according to the manufacturer's instructions, after the fibroblasts were incubated with test substances for 3-8 d. Data were expressed as mean OD490±SD of quadruplicate cultures and analyzed using one-way ANOVA with post hoc testing."}, "ERK1/2": {"tested_on": "ERK1/2", "assay": "Immunoblotting for phosphorylation of ERK1/2", "type": "cell-based, human", "settings": "lung fibroblasts LF1/LF2 activated with rhPARC"}, "Smad3/4": {"tested_on": "Smad3/4", "assay": "EMSA of nuclear lysates with Smad3/4 probe", "type": "cell-based, human"}, "[2]": {"tested_on": "mink lung epithelial cells", "assay": "Mink lung epithelial cell proliferation assay (thymidine incorporation)", "type": "cell-based", "method": "Mink Lung Epithelial Cell Proliferation Assay for Active TGF-β. Mink lung epithelial cell line CCL-64 was purchased from American Type Culture Collection (ATCC, Manassas, Va.) and maintained in high-serum medium. For proliferation assays, these cells were plated in 96-well plates at 1×10^4 cells/well in low-serum fibroblast cell culture medium and incubated overnight in humidified atmosphere of 5% CO2 at 37° C. The medium was then replaced with fibroblast cell culture supernatants or titrated dilutions rhTGF-β in low-serum medium, with and without neutralizing anti-pan-TGF-β antibody (clone 1D11 from R&D Systems), and incubation continued for additional 24 hours. Six hours before the end of the assay, wells were pulsed with 1 μCi of 3H-thymidine (Amersham). Quadruplicate cultures were harvested automatically and tritiated thymidine incorporation was measured with a TopCount NXT liquid scintillation counter (Perkin Elmer, Downers Grove, Ill.). Data were expressed as percent inhibition (versus low-serum medium used as a negative control), neutralized by 1 μg/ml of anti-TGF-β antibody (this concentration of the antibody was established in preliminary experiments as sufficient to completely abrogate the inhibitory effect of the fibroblast conditioned medium on mink lung epithelial cell proliferation). […]"}}, "note": "“Also recorded” adds a separate entry of the source."}
{"molecule": "rhPARC: Recombinant human pulmonary and activation-regulated chemokine (CC chemokine CCL18), purchased from R&D Systems and Cell Sciences (protein) AQVGTNKELCCLVYTSWQIPQKFIVDYSETSPQCPKPGVILLTKRGRQICADPNKKWVQKYISDLKLNA", "values": [{"measurement": "steady-state collagen α2(I) mRNA level versus control", "setting": "α2(I) collagen mRNA; LF1 and LF2, 300 ng/ml rhPARC, 3 and 6 h", "result": "transiently increased; also recorded: higher than in control cells"}, {"measurement": "higher concentration of collagen mRNA in treated samples versus control", "setting": "α2(I) collagen mRNA; lung fibroblasts, 300 ng/ml rhPARC, 6 h", "result": "approximately 4 fold"}, {"measurement": "steady-state levels of TGF-β mRNAs, treated versus control", "setting": "TGF-β1 mRNA", "result": "no difference in TGF-β1 mRNA levels"}, {"measurement": "maximum increase in fibroblast proliferation over non-stimulated control", "setting": "[1]; dermal lines", "result": "45-50%"}, {"measurement": "maximum increase in fibroblast proliferation over non-stimulated control", "setting": "[1]; lung lines", "result": "20-25%"}, {"measurement": "increase in fibroblast proliferation", "setting": "[1]; summary statement", "result": "25-50%"}, {"measurement": "phosphorylation of ERK1/2", "setting": "ERK1/2", "result": "increased; also recorded: activated"}, {"measurement": "density of the specific Smad3 band relative to the density at time 0", "setting": "Smad3/4; LF1, LF2, LF4, rhPARC-stimulated samples", "result": "0.9-1.2 fold"}, {"measurement": "DNA-binding activity of Smad3/4 (EMSA)", "setting": "Smad3/4; after activation with PARC", "result": "No increase; also recorded: but not Smad3/4"}, {"measurement": "direct effect on proliferation of mink lung epithelial cells", "setting": "[2]", "result": "did not affect proliferation of mink lung epithelial cells"}]}
